This note sets out measurements from patent US20100196390A1 (RINAT NEUROSCIENCE, published 2010).

Where a chain is given by its changes, count along the chain named.

For this test, the target named is TrkB (Homo sapiens (Human), UniProt Q16620 32-430). The experiment in a line: koff of Fab at 25 C; T1/2=Log2/koff. The gist of the method:
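Monovalent Fab fragments were tested at 25° C by surface plasmon resonance on a Biacore instrument, against TrkB extracellular-domain monomer amine-coupled to the chip at low capacity. Fabs were injected low to high as a 3-fold serial dilution from 100 nM for 84 sec, with a 10 minute dissociation after the top sample. The dissociation half-life was calculated from koff, which was fitted to a Langmuir binding model in BIAevaluation. The formula used was T1/2 = Log 2/koff.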

Sequence of TrkB (Q16620 32-430 limits assumed): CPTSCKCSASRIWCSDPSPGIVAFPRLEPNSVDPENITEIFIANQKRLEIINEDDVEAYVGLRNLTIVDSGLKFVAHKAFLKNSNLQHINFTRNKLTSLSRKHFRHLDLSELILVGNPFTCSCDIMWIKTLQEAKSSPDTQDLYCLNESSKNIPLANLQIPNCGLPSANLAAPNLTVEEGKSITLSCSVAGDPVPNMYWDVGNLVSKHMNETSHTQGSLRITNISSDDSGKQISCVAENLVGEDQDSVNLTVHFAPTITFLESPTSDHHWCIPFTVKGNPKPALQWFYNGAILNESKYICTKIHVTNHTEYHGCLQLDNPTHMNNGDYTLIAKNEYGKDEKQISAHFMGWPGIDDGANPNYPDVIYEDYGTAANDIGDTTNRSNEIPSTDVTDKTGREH

B1: 12-D8 (Fab, V domains shown)
VH: QVQLVQSGAEVKKPGASVKVSCKASGYTFTNYDIIWVRQAPGQGLEWMGYINPYNGRREYNEKFKGRVTMTRDTSTSTVYMELSSLRSEDTAVYYCARLLKYRRFRYYAIDYWGQGTTVTVSS
VL: DIQMTQSPSSLSASVGDRVTITCRASENVYSNTAWYQQKPGKAPKLLIYAASNLQSGVPSRFSGSGSGTDYTFTISSLQPEDIATYYCQHFWGSPFTFGQGTKLEIK
notes: Fab
As to B1, the T1/2 was found to be 10 min.

B2: 14-A6 (Fab, V domains shown)
VH: B1 VH with G56R
VL: B1 VL with R24H, T33L, Y71F
notes: Fab
B2 registered a T1/2 of 2.8 min.

B3: 13-C11 (Fab, V domains shown)
VH: B1 VH
VL: B1 VL with N32H, T33L
notes: Fab
B3 showed a T1/2 of 13 min.

B4: 12-E5 (Fab, V domains shown)
VH: B1 VH
VL: B1 VL with N28P, T33L, Y71F
notes: Fab
On to B4, for which the T1/2 is 7.5 min.

B5: 13-C5 (Fab, V domains shown)
VH: B1 VH
VL: B1 VL with N28P, T33L
notes: Fab
In turn, B5 yielded a T1/2 of 13 min.

B6: 13-B4 (Fab, V domains shown)
VH: B1 VH with G56D, R57G, E59K, Y60E
VL: B1 VL with S31M, T33L, G93Y
notes: Fab
Turning to B6, the T1/2 came out at 13 min.

B7: 16-G9 (Fab, V domains shown)
VH: B1 VH with G56D, R57G, R58T, E59K
VL: B1 VL with T33L, Y71F, G93Y, T97G
notes: Fab
For the molecule B7, the T1/2 was found to be 4 min.

B8: T1-HuC1 (Fab, V domains shown)
VH: B1 VH with G56D, R57G, R58T, E59K, R106S
VL: B1 VL with T33L, Q55A, S56D, Y71F, G93Y
notes: Fab
As to B8, the T1/2 was determined as 1.7 min.

B9: 16-A6 (Fab, V domains shown)
VH: B1 VH with G56D, R57G, R58T, E59K
VL: B1 VL with A25T, T33L, Q55A, S56D, Y71F, G93A
notes: Fab
The molecule B9 showed a T1/2 of 1 min.

B10: 16-B7 (Fab, V domains shown)
VH: B1 VH with G56D, R57G, R58T, E59K
VL: B1 VL with T33L, Q55A, S56D, Y71F, G93A
notes: Fab
The molecule B10 returned a T1/2 of 5 min.

B11: 13-H3 (Fab, V domains shown)
VH: B1 VH with G56D, R57G, E59K, Y60E
VL: B1 VL with T33L
notes: Fab
On to B11, for which the T1/2 is 13 min.

B12: 16-E4 (Fab, V domains shown)
VH: B1 VH with G56D, R57G, R58T, E59K
VL: B1 VL with T33L, Y71F, G93Y, F96W
notes: Fab
For the molecule B12, the T1/2 is 7 min.

B13: 13-H6 (Fab, V domains shown)
VH: B1 VH with G56D, R57G, E59K, Y60E
VL: B1 VL with N32H, T33L, W92V, G93Y
notes: Fab
For the molecule B13, the T1/2 stood at 13 min.

B14: 13-D5 (Fab, V domains shown)
VH: B1 VH
VL: B1 VL with Y30T, T33L
notes: Fab
In turn, B14 had a T1/2 of 13 min.

B15: 12-E9 (Fab, V domains shown)
VH: B1 VH with G56D, R57G, R58T, E59K, G66Y
VL: B1 VL with N28S, S31N, T33L, Y71F
notes: Fab
In turn, B15 returned a T1/2 of 3.5 min.

B16: 13-B3 (Fab, V domains shown)
VH: B1 VH
VL: B1 VL with S31N, T33L
notes: Fab
As to B16, the T1/2 amounted to 13 min.

B17: A6-11 (Fab, V domains shown)
VH: B1 VH with G56R, R58T
VL: B1 VL with R24H, T33L
notes: Fab
Consider B17, for which the T1/2 came to 9.9 min.

B18: 13-C7 (Fab, V domains shown)
VH: B1 VH
VL: B1 VL with N28P, T33L, G93Y
notes: Fab
Regarding B18, the T1/2 stood at 13 min.

B19: A6-9 (Fab, V domains shown)
VH: B1 VH with G56D, E59R
VL: B1 VL with R24H, T33L
notes: Fab
Molecule B19 returned a T1/2 of 11.8 min.

B20: 16-F4 (Fab, V domains shown)
VH: B1 VH with G56D, R57G, R58T, E59K
VL: B1 VL with T33L, Q55A, S56D, Y71F, G93T
notes: Fab
In the case of B20, the T1/2 turned out to be 5 min.

B21: 14-B1 (Fab, V domains shown)
VH: B1 VH with G56D, R57G, E59K, Y60E
VL: B1 VL with N28P, T33L
notes: Fab
On to B21, for which the T1/2 worked out at 13 min.

B22: 12-H6 (Fab, V domains shown)
VH: B1 VH with G56R
VL: B1 VL with S31R, T33L
notes: Fab
B22 gave a T1/2 of 12 min.

B23: 16-C3 (Fab, V domains shown)
VH: B1 VH with G56D, R57G, R58T, E59K
VL: B1 VL with T33L, Y71F, H90Q, G93Y
notes: Fab
B23 displayed a T1/2 of 1 min.

B24: 16-A10 (Fab, V domains shown)
VH: B1 VH with G56D, R57G, R58T, E59K
VL: B1 VL with A25T, T33L, Y71F, G93Y, F96W
notes: Fab
With B24, the T1/2 worked out at 6 min.

B25: 13-F12 (Fab, V domains shown)
VH: B1 VH
VL: B1 VL with S31R, T33L
notes: Fab
On to B25, for which the T1/2 amounted to 13 min.

B26: 13-B2 (Fab, V domains shown)
VH: B1 VH
VL: B1 VL with E27K, N28P, T33L
notes: Fab
In turn, B26 came in with a T1/2 of 13 min.

B27: 15-G6 (Fab, V domains shown)
VH: B1 VH with G56D, R57G, R58T, E59K, R106K
VL: B1 VL with A25T, T33L, Y71F, H90Q, G93Y
notes: Fab
B27 registered a T1/2 of 1.8 min.

B28: 15-H1 (Fab, V domains shown)
VH: B1 VH with G56D, R57G, R58T, E59K, R103A, R104C, Y107E, Y108E
VL: B1 VL with T33L, Y71F, G93E
notes: Fab
For B28, the T1/2 was 2.1 min.

B29: 12-E11 (Fab, V domains shown)
VH: B1 VH
VL: B1 VL with N28P, S31N, T33L, G93Y
notes: Fab
For B29, the T1/2 was determined as 11 min.

B30: A6-10 (Fab, V domains shown)
VH: B1 VH with G56R, R57G
VL: B1 VL with R24H, T33L
notes: Fab
For the molecule B30, the T1/2 came to 4 min.

B31: 16-C1 (Fab, V domains shown)
VH: B1 VH with G56D, R57G, R58T, E59K, R106K
VL: B1 VL with T33L, Y71F, G93Y, F96W
notes: Fab
Take B31: the T1/2 came out at 6 min.

B32: 16-H4 (Fab, V domains shown)
VH: B1 VH with G56D, R57G, R58T, E59K
VL: B1 VL with A25T, N28S, T33L, Y71F, G93A
notes: Fab
B32 had a T1/2 of 6 min.

B33: 13-A12 (Fab, V domains shown)
VH: B1 VH with G56D, R57G, E59K, Y60E
VL: B1 VL with S31R, T33L, G93Y
notes: Fab
On to B33, for which the T1/2 came out at 13 min.

B34: 13-C12 (Fab, V domains shown)
VH: B1 VH
VL: B1 VL with S31R, T33L, W92V, G93Y
notes: Fab
With B34, the T1/2 amounted to 13 min.

B35: 13-C6 (Fab, V domains shown)
VH: B1 VH
VL: B1 VL with N28P, T33V, Y71F
notes: Fab
As for B35, the T1/2 was 4.8 min.

B36: 16-D6 (Fab, V domains shown)
VH: B1 VH with G56D, R57G, R58T, E59K, R106K
VL: B1 VL with T33L, Q55A, S56D, Y71F, H90D, G93Y
notes: Fab
On to B36, for which the T1/2 worked out at 1 min.
